Experimental data taken from EP1659133.

B1: M1308F (antibody, V domains shown)
VH: EVQLQQSGAELVRPGALVKLSCKASGFNIKDYYIYWVKQRPEQGLEWIGWIDPENGNTVFDPKFQGKASITSDTSSNTAYLQLSSLTSEDTAVYYCAYYGTSSFDFWGQGTTLTVSS
VL: DIKMTQSPSSMYVSLGERVTITCKASQDINRYLNWFQQKPGKSPKTLIHRANRLVDGVPSRFSGSGSGQEYSLTISSLEFEDMGIYYCLQFHEFPYTFGGGTKLEIK
B2: H1129 (humanized 1129) (antibody, V domains shown)
VH: QVTLRESGPALVKPSQTLTLTCSFSGFSLSTSGMSVGWIRQPSGKALEWLADIWWDDKKDYNPSLKSRLTISKDTSKNQVVLKVTNVDPADTATYYCARSMITNWYFDVWGAGTTVTVSS
VL: DIQMTQSPSTLSASVGDRVTITCKCQLSVGYMHWYQQKPGKAPKLWIYDTSKLASGVPSRFSGSGSGTEFTLTISSLQPDDFATYYCFQGSGYPFTFGGGTKLEIK
B3: H1308F (antibody, V domains shown)
VH: QVQLVQSGAEVKKPGASVKVSCKASGFNIKDYYIYWVRQAPGQGLEWIGWIDPENGNTVFDPKFQGRVTMTRDTSTSTVYMELSSLRSEDTAVYYCAYYGTSSFDFWGQGTTLTVSS
VL: DIQMTQSPSTLSASVGDRVTITCKASQDINRYLNWYQQKPGKAPKLLIYRANRLVDGVPSRFSGSGSGTEFTLTISSLQPDDFATYYCLQFHEFPYTFGGGTKLEIK
B4: CH1129 (M1129HuGamma1,Kappa) (antibody, V domains shown)
VH: QVELQESGPGILQPSQTLSLTCSFSGFSLSTSGMSVGWIRQPSGEGLEWLADIWWDDKKDYNPSLKSRLTISKDTSSNQVFLKITGVDTADTATYYCARSMITNWYFDVWGAGTTVTVSS
VL: DIQLTQSPAIMSASPGEKVTMTCSASSSVGYMHWYQQKSSTSPKLWIYDTSKLASGVPGRFSGSGSGNSYSLTISSIQAEDVATYYCFQGSGYPFTFGGGTKLEIK
B5: M1129 (antibody, V domains shown)
VH: B4 VH
VL: B4 VL

What was measured:
[1] = molecular target: RSV F protein (C-terminal truncated) (respiratory syncytial virus, UniProt P03420); experiment: SPR
Sequence of RSV F protein (C-terminal truncated) (P03420 26-524): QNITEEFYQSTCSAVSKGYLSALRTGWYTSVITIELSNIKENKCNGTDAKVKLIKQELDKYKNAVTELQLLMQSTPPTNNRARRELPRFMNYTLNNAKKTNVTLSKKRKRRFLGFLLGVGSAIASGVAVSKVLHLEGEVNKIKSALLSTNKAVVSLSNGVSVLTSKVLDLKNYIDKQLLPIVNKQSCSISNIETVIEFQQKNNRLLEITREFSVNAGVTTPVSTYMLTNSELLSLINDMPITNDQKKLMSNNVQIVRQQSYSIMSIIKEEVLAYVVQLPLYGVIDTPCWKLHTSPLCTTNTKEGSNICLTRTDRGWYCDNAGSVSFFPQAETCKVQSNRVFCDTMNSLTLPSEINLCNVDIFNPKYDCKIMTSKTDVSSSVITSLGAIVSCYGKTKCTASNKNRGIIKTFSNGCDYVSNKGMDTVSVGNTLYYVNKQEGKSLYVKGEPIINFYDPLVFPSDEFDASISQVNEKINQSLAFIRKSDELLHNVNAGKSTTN

[2] = molecular target: T1, RSV F protein from infected HEp2 cell lysate (respiratory syncytial virus, UniProt P03420); experiment: ELISA, apparent
T1 sequence (P03420 26-524): as above

[3] = molecular target: T1, RSV F protein from infected HEp2 cell …; experiment: ELISA, apparent (unit printed as 10mm)

Binder | Kd [1] [nM] | Kd [2] [nM] | Kd [3] [nM]
B1 | 1.1 | – | –
B2 | 1.4 | 0.7 | –
B3 | 2.5 | – | –
B4 | 1.5 | – | 10
B5 | 11.4 | – | –
